Assays:
[1] = target: Bcl-XL single-cysteine mutant 152C, Alexa647-labelled (human) (UniProt Q07817); assay: FRET or BRET; purified Alexa568-labelled BH3 protein (10 nM) and Alexa647-labelled Bcl-XL (40 nM) with liposomes, ABT-263 titrated in; 37 C, 1 h; relative displacements, not absolute affinity
[2] = target: mCerulean3-Bcl-2 (human) (UniProt P10415); assay: FRET or BRET; FLIM-FRET in live MCF-7 cells: mCer3-Bcl-XL or mCer3-Bcl-2 stably expressed (donor), Venus-BH3 protein transiently expressed (acceptor); binding curves of FLIM-FRET efficiency against the Venus:mCer3 intensity ratio, 25 C; untreated, DMSO, 20 uM ABT-263 (18-24 h) or 1.25-20 uM A-1155463, A-1331852, ABT-263; R values interpolated at ratio 0.5 (Bcl-XL) or 0.25 (Bcl-2), ^VBad4E signal subtracted
[3] = target: mCerulean3-Bcl-XL (human) (UniProt Q07817); assay: as above
Sequence of mCerulean3-Bcl-XL (human) (Q07817 whole entry): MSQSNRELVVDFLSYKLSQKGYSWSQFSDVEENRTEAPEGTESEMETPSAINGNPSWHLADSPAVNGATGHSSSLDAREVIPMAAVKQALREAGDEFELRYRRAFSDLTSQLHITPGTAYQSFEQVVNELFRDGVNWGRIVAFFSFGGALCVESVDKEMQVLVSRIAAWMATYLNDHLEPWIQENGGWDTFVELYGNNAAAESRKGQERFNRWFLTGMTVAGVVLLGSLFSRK

Sequence of mCerulean3-Bcl-2 (human) (P10415 whole entry): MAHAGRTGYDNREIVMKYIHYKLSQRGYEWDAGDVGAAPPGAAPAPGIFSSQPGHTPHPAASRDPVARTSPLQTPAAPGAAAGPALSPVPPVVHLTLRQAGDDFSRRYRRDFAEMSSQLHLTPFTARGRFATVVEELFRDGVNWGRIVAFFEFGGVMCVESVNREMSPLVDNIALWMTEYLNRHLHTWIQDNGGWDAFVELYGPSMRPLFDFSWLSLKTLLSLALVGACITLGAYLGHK
Sequence of Venus-BimEL-dN (domain or fragment) (O54918 whole entry, the tested form may be a part): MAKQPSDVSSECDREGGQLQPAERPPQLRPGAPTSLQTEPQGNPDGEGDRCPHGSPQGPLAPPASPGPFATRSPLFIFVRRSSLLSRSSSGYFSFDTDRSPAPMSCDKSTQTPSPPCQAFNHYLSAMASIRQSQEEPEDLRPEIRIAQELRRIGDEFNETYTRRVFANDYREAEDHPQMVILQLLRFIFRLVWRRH
Sequence of Venus-BimEL BH3-2A (O54918 whole entry): as the sequence (O54918 whole entry, the tested form may be a part) above
Sequence of Venus-BimEL-dCTS (domain or fragment) (O54918 whole entry, the tested form may be a part): as above
Sequence of Bcl-XL single-cysteine mutant 152C, Alexa647-labelled (human) (Q07817 other isoform, or with tags, fused parts or gaps mutant): as the sequence (Q07817 whole entry) above, with V152C counted along it

Row | R (ABT-263), % of FRET signal left with 20 uM ABT-263 [2] [%] | R (ABT-263), % of FRET signal left with 20 uM ABT-263 [3] [%] | R (BH3-2A), % of FRET signal of the same construct without BH3-2A [2] [%] | R (BH3-2A), % of FRET signal of the same construct without BH3-2A [3] [%] | Substance | further results
1 | – | – | – | – | Bid single-cysteine mutant 126C (tBid, added as cBid), Alexa568-labelled (domain or fragment) | IC50 of ABT-263 for displacing the pair [1]: 400 nM
2 | 65.5 | 98 | – | – | Venus-Bad with the BH3 region of Bim | –
3 | – | – | 54.9 | 70.2 | Venus-Bad-Bim BH3-2A | –
4 | 53.2 | 83.2 | – | – | Venus-Bad-Bim-I146Y | –
5 | – | – | – | 46.6 | Venus-Bad-Bim-I146Y BH3-2A | –
6 | 69.1 | 89 | – | – | Venus-Bad-Bim-I146Y-I153M | –
7 | – | – | 42.6 | 56.8 | Venus-Bad-Bim-I146Y-I153M BH3-2A | –
8 | 61.8 | 90.2 | – | – | Venus-Bad-Bim-I146Y-Q148R | –
9 | – | – | 37.7 | 50.5 | Venus-Bad-Bim-I146Y-Q148R BH3-2A | –
10 | 68.5 | 92.8 | – | – | Venus-Bad-Bim-I153M | –
11 | – | – | 102 | 96.5 | Venus-Bad-Bim-I153M BH3-2A | –
12 | 53.5 | 89.8 | – | – | Venus-Bad-Bim-Q148R | –
13 | – | – | 56.9 | 74.5 | Venus-Bad-Bim-Q148R BH3-2A | –
14 | – | – | 66.8 | 81.4 | Venus-BimEL BH3-2A (from UniProt O54918-1 1-196) (natural protein) | –
15 | 65.8 | 60.5 | – | – | Venus-BimEL with the BH3 region of Bad | –
16 | – | – | – | 26.1 | Venus-BimEL-Bad BH3-2A | –
17 | 12.5 | 40.2 | – | – | Venus-BimEL-Bad-dCTS | –

Row | R (ABT-263), % of FRET signal left with 20 uM ABT-263 [2] [%] | R (ABT-263), % of FRET signal left with 20 uM ABT-263 [3] [%] | R (BH3-2A), % of FRET signal of the same construct without BH3-2A [2] [%] | R (BH3-2A), % of FRET signal of the same construct without BH3-2A [3] [%] | Substance | further results
18 | – | – | 54.2 | 71 | Venus-BimEL-I146Y BH3-2A (from UniProt O54918-1 1-196) (natural protein) | –
19 | 52.9 | 38.5 | – | – | Venus-BimEL-I146Y-dCTS (domain or fragment) | –
20 | – | – | 47.2 | 49.2 | Venus-BimEL-I181E BH3-2A (from UniProt O54918-1 1-196) (natural protein) | –
21 | – | – | 47.5 | 67.2 | Venus-BimEL-I188E BH3-2A (from UniProt O54918-1 1-196) (natural protein) | –
22 | – | – | – | 159 | Venus-BimEL-L185A BH3-2A (from UniProt O54918-1 1-196) (natural protein) | –
23 | – | – | – | 100 | Venus-BimEL-L185F BH3-2A (from UniProt O54918-1 1-196) (natural protein) | –
24 | – | – | – | 86.8 | Venus-BimEL-L185G BH3-2A (from UniProt O54918-1 1-196) (natural protein) | –
25 | – | – | – | 49.1 | Venus-BimEL-L185H BH3-2A (from UniProt O54918-1 1-196) (natural protein) | –
26 | – | – | – | 90 | Venus-BimEL-L185M BH3-2A (from UniProt O54918-1 1-196) (natural protein) | –
27 | – | – | – | 59 | Venus-BimEL-L185P BH3-2A (from UniProt O54918-1 1-196) (natural protein) | –
28 | – | – | – | 48.1 | Venus-BimEL-L185R BH3-2A (from UniProt O54918-1 1-196) (natural protein) | –
29 | – | – | – | 73.5 | Venus-BimEL-L185S BH3-2A (from UniProt O54918-1 1-196) (natural protein) | –
30 | – | – | 54.5 | 52.6 | Venus-BimEL-V192E BH3-2A (from UniProt O54918-1 1-196) (natural protein) | –
31 | 60 | 69 | – | – | Venus-BimEL-dCTS (domain or fragment) | –
32 | – | – | 13.6 | 15.1 | Venus-BimEL-dCTS BH3-2A (domain or fragment) | –
33 | 90.5 | 90.8 | – | – | Venus-BimEL-dN (domain or fragment) | –

Reference: article PMC6414199, “Bim escapes displacement by BH3-mimetic anti-cancer drugs by double-bolt locking both Bcl-XL and Bcl-2” (eLife, 2019)
